{
  "source": "patent US12104181B2",
  "about": "“Compositions and methods for treating viral infections targeting TRIM7” (THE BOARD OF REGENTS OF THE UNIVERSITY OF TEXAS SYSTEM, priority 2021, dated 2024)",
  "tested_on": "coxsackievirus B3 (CVB3-GFP)",
  "type": "cell-based",
  "settings": "HeLa cells, replicate R1; for Percent Infected R1: GFP-positive cells within RFP-positive gate",
  "data": [
    {"molecule": "TRIM11: human RING type E3 ligase expressed from lentiviral vector (protein, UniProt Q96F44 1-468, looked up) E3 ubiquitin-protein ligase …: MAAPDLSTNLQEEATCAICLDYFTDPVMTDCGHNFCRECIRRCWGQPEGPYACPECRELSPQRNLRPNRPLAKMAEMARRLHPPSPVPQGVCPAHREPLAAFCGDELRLLCAACERSGEHWAHRVRPLQDAAEDLKAKLEKSLEHLRKQMQDALLFQAQADETCVLWQKMVESQRQNVLGEFERLRRLLAEEEQQLLQRLEEEELEVLPRLREGAAHLGQQSAHLAELIAELEGRCQLPALGLLQDIKDALRRVQDVKLQPPEVVPMELRTVCRVPGLVETLRRFRGDVTLDPDTANPELILSEDRRSVQRGDLRQALPDSPERFDPGPCVLGQERFTSGRHYWEVEVGDRTSWALGVCRENVNRKEKGELSAGNGFWILVFLGSYYNSSERALAPLRDPPRRVGIFLDYEAGHLSFYSATDGSLLFIFPEIPFSGTLRPLFSPLSSSPTPMTICRPKGGSGDTLAPQ", "values": [
      {"measurement": "Percent Infected R1", "result": 58.2, "unit": "%"},
      {"measurement": "Z score R1", "result": "−0.387"}
    ]},
    {"molecule": "TRIM17: human RING type E3 ligase expressed from lentiviral vector (protein, UniProt Q9Y577 1-477, looked up) E3 ubiquitin-protein ligase …: MEAVELARKLQEEATCSICLDYFTDPVMTTCGHNFCRACIQLSWEKARGKKGRRKRKGSFPCPECREMSPQRNLLPNRLLTKVAEMAQQHPGLQKQDLCQEHHEPLKLFCQKDQSPICVVCRESREHRLHRVLPAEEAVQGYKLKLEEDMEYLREQITRTGNLQAREEQSLAEWQGKVKERRERIVLEFEKMNLYLVEEEQRLLQALETEEEETASRLRESVACLDRQGHSLELLLLQLEERSTQGPLQMLQDMKEPLSRKNNVSVQCPEVAPPTRPRTVCRVPGQIEVLRGFLEDVVPDATSAYPYLLLYESRQRRYLGSSPEGSGFCSKDRFVAYPCAVGQTAFSSGRHYWEVGMNITGDALWALGVCRDNVSRKDRVPKCPENGFWVVQLSKGTKYLSTFSALTPVMLMEPPSHMGIFLDFEAGEVSFYSVSDGSHLHTYSQATFPGPLQPFFCLGAPKSGQMVISTVTMWVKG", "values": [
      {"measurement": "Percent Infected R1", "result": 75.9, "unit": "%"},
      {"measurement": "Z score R1", "result": "−0.162"}
    ]},
    {"molecule": "TRIM10: human RING type E3 ligase expressed from lentiviral vector (protein, UniProt Q9UDY6 1-481, looked up, lentiviral expression, human RING type E3 ligase expressed from lentiviral vector) Tripartite motif-containing …: MASAASVTSLADEVNCPICQGTLREPVTIDCGHNFCRACLTRYCEIPGPDLEESPTCPLCKEPFRPGSFRPNWQLANVVENIERLQLVSTLGLGEEDVCQEHGEKIYFFCEDDEMQLCVVCREAGEHATHTMRFLEDAAAPYREQIHKCLKCLRKEREEIQEIQSRENKRMQVLLTQVSTKRQQVISEFAHLRKFLEEQQSILLAQLESQDGDILRQRDEFDLLVAGEICRFSALIEELEEKNERPARELLTDIRSTLIRCETRKCRKPVAVSPELGQRIRDFPQQALPLQREMKMFLEKLCFELDYEPAHISLDPQTSHPKLLLSEDHQRAQFSYKWQNSPDNPQRFDRATCVLAHTGITGGRHTWVVSIDLAHGGSCTVGVVSEDVQRKGELRLRPEEGVWAVRLAWGFVSALGSFPTRLTLKEQPRQVRVSLDYEVGWVTFTNAVTREPIYTFTASFTRKVIPFFGLWGRGSSFSLSS", "values": [
      {"measurement": "Percent Infected R1", "result": 58.7, "unit": "%"},
      {"measurement": "Z score R1", "result": "−0.38"}
    ]},
    {"molecule": "TRIM19: human RING type E3 ligase expressed from lentiviral vector (protein, UniProt P29590 1-882, looked up) Protein PML: MEPAPARSPRPQQDPARPQEPTMPPPETPSEGRQPSPSPSPTERAPASEEEFQFLRCQQCQAEAKCPKLLPCLHTLCSGCLEASGMQCPICQAPWPLGADTPALDNVFFESLQRRLSVYRQIVDAQAVCTRCKESADFWCFECEQLLCAKCFEAHQWFLKHEARPLAELRNQSVREFLDGTRKTNNIFCSNPNHRTPTLTSIYCRGCSKPLCCSCALLDSSHSELKCDISAEIQQRQEELDAMTQALQEQDSAFGAVHAQMHAAVGQLGRARAETEELIRERVRQVVAHVRAQERELLEAVDARYQRDYEEMASRLGRLDAVLQRIRTGSALVQRMKCYASDQEVLDMHGFLRQALCRLRQEEPQSLQAAVRTDGFDEFKVRLQDLSSCITQGKDAAVSKKASPEAASTPRDPIDVDLPEEAERVKAQVQALGLAEAQPMAVVQSVPGAHPVPVYAFSIKGPSYGEDVSNTTTAQKRKCSQTQCPRKVIKMESEEGKEARLARSSPEQPRPSTSKAVSPPHLDGPPSPRSPVIGSEVFLPNSNHVASGAGEAEERVVVISSSEDSDAENSSSRELDDSSSESSDLQLEGPSTLRVLDENLADPQAEDRPLVFFDLKIDNETQKISQLAAVNRESKFRVVIQPEAFFSIYSKAVSLEVGLQHFLSFLSSMRRPILACYKLWGPGLPNFFRALEDINRLWEFQEAISGFLAALPLIRERVPGASSFKLKNLAQTYLARNMSERSAMAAVLAMRDLCRLLEVSPGPQLAQHVYPFSSLQCFASLQPLVQAAVLPRAEARLLALHNVSFMELLSAHRRDRQGGLKKYSRYLSLQTTTLPPAQPAFNLQALGTYFEGLLEGPALARAEGVSTPLAGRGLAERASQQS", "values": [
      {"measurement": "Percent Infected R1", "result": 60.8, "unit": "%"},
      {"measurement": "Z score R1", "result": "−0.354"}
    ]},
    {"molecule": "TRIM18: human RING type E3 ligase expressed from lentiviral vector (protein, UniProt O15344 1-667, looked up, lentiviral expression, human RING type E3 ligase expressed from lentiviral vector) E3 ubiquitin-protein ligase …: METLESELTCPICLELFEDPLLLPCAHSLCFNCAHRILVSHCATNESVESITAFQCPTCRHVITLSQRGLDGLKRNVTLQNIIDRFQKASVSGPNSPSETRRERAFDANTMTSAEKVLCQFCDQDPAQDAVKTCVTCEVSYCDECLKATHPNKKPFTGHRLIEPIPDSHIRGLMCLEHEDEKVNMYCVTDDQLICALCKLVGRHRDHQVAALSERYDKLKQNLESNLTNLIKRNTELETLLAKLIQTCQHVEVNASRQEAKLTEECDLLIEIIQQRRQIIGTKIKEGKVMRLRKLAQQIANCKQCIERSASLISQAEHSLKENDHARFLQTAKNITERVSMATASSQVLIPEINLNDTFDTFALDFSREKKLLECLDYLTAPNPPTIREELCTASYDTITVHWTSDDEFSVVSYELQYTIFTGQANVVSLCNSADSWMIVPNIKQNHYTVHGLQSGTKYIFMVKAINQAGSRSSEPGKLKTNSQPFKLDPKSAHRKLKVSHDNLTVERDESSSKKSHTPERFTSQGSYGVAGNVFIDSGRHYWEVVISGSTWYAIGLAYKSAPKHEWIGKNSASWALCRCNNNWVVRHNSKEIPIEPAPHLRRVGILLDYDNGSIAFYDALNSIHLYTFDVAFAQPVCPTFTVWNKCLTIITGLPIPDHLDCTEQLP", "values": [
      {"measurement": "Percent Infected R1", "result": 71.6, "unit": "%"},
      {"measurement": "Z score R1", "result": "−0.216"}
    ]},
    {"molecule": "TRIM15: human RING type E3 ligase expressed from lentiviral vector (protein, UniProt Q9C019 1-465, looked up, lentiviral expression, human RING type E3 ligase expressed from lentiviral vector) E3 ubiquitin-protein ligase …: MPATPSLKVVHELPACTLCAGPLEDAVTIPCGHTFCRLCLPALSQMGAQSSGKILLCPLCQEEEQAETPMAPVPLGPLGETYCEEHGEKIYFFCENDAEFLCVFCREGPTHQAHTVGFLDEAIQPYRDRLRSRLEALSTERDEIEDVKCQEDQKLQVLLTQIESKKHQVETAFERLQQELEQQRCLLLARLRELEQQIWKERDEYITKVSEEVTRLGAQVKELEEKCQQPASELLQDVRVNQSRCEMKTFVSPEAISPDLVKKIRDFHRKILTLPEMMRMFSENLAHHLEIDSGVITLDPQTASRSLVLSEDRKSVRYTRQKKSLPDSPLRFDGLPAVLGFPGFSSGRHRWQVDLQLGDGGGCTVGVAGEGVRRKGEMGLSAEDGVWAVIISHQQCWASTSPGTDLPLSEIPRGVRVALDYEAGQVTLHNAQTQEPIFTFTASFSGKVFPFFAVWKKGSCLTLKG", "values": [
      {"measurement": "Percent Infected R1", "result": 66.8, "unit": "%"},
      {"measurement": "Z score R1", "result": "−0.277"}
    ]},
    {"molecule": "TRIM13: human RING type E3 ligase expressed from lentiviral vector (protein, UniProt O60858 1-407, looked up, lentiviral expression, human RING type E3 ligase expressed from lentiviral vector) E3 ubiquitin-protein ligase …: MELLEEDLTCPICCSLFDDPRVLPCSHNFCKKCLEGILEGSVRNSLWRPAPFKCPTCRKETSATGINSLQVNYSLKGIVEKYNKIKISPKMPVCKGHLGQPLNIFCLTDMQLICGICATRGEHTKHVFCSIEDAYAQERDAFESLFQSFETWRRGDALSRLDTLETSKRKSLQLLTKDSDKVKEFFEKLQHTLDQKKNEILSDFETMKLAVMQAYDPEINKLNTILQEQRMAFNIAEAFKDVSEPIVFLQQMQEFREKIKVIKETPLPPSNLPASPLMKNFDTSQWEDIKLVDVDKLSLPQDTGTFISKIPWSFYKLFLLILLLGLVIVFGPTMFLEWSLFDDLATWKGCLSNFSSYLTKTADFIEQSVFYWEQVTDGFFIFNERFKNFTLVVLNNVAEFVCKYKLL", "values": [
      {"measurement": "Percent Infected R1", "result": 53, "unit": "%"},
      {"measurement": "Z score R1", "result": "−0.453"}
    ]},
    {"molecule": "TRIM20: human RING type E3 ligase expressed from lentiviral vector (protein, UniProt O15553 1-781, looked up, lentiviral expression, human RING type E3 ligase expressed from lentiviral vector) Pyrin: MAKTPSDHLLSTLEELVPYDFEKFKFKLQNTSVQKEHSRIPRSQIQRARPVKMATLLVTYYGEEYAVQLTLQVLRAINQRLLAEELHRAAIQEYSTQENGTDDSAASSSLGENKPRSLKTPDHPEGNEGNGPRPYGGGAASLRCSQPEAGRGLSRKPLSKRREKASEGLDAQGKPRTRSPALPGGRSPGPCRALEGGQAEVRLRRNASSAGRLQGLAGGAPGQKECRPFEVYLPSGKMRPRSLEVTISTGEKAPANPEILLTLEEKTAANLDSATEPRARPTPDGGASADLKEGPGNPEHSVTGRPPDTAASPRCHAQEGDPVDGTCVRDSCSFPEAVSGHPQASGSRSPGCPRCQDSHERKSPGSLSPQPLPQCKRHLKQVQLLFCEDHDEPICLICSLSQEHQGHRVRPIEEVALEHKKKIQKQLEHLKKLRKSGEEQRSYGEEKAVSFLKQTEALKQRVQRKLEQVYYFLEQQEHFFVASLEDVGQMVGQIRKAYDTRVSQDIALLDALIGELEAKECQSEWELLQDIGDILHRAKTVPVPEKWTTPQEIKQKIQLLHQKSEFVEKSTKYFSETLRSEMEMFNVPELIGAQAHAVNVILDAETAYPNLIFSDDLKSVRLGNKWERLPDGPQRFDSCIIVLGSPSFLSGRRYWEVEVGDKTAWILGACKTSISRKGNMTLSPENGYWVVIMMKENEYQASSVPPTRLLIKEPPKRVGIFVDYRVGSISFYNVTARSHIYTFASCSFSGPLQPIFSPGTRDGGKNTAPLTICPVGGQGPD", "values": [
      {"measurement": "Percent Infected R1", "result": 78.8, "unit": "%"},
      {"measurement": "Z score R1", "result": "−0.125"}
    ]},
    {"molecule": "TRIM14: human RING type E3 ligase expressed from lentiviral vector (protein, UniProt Q14142 1-442, looked up) Tripartite motif-containing …: MAGAATGSRTPGRSELVEGCGWRCPEHGDRVAELFCRRCRRCVCALCPVLGAHRGHPVGLALEAAVHVQKLSQECLKQLAIKKQQHIDNITQIEDATEKLKANAESSKTWLKGKFTELRLLLDEEEALAKKFIDKNTQLTLQVYREQADSCREQLDIMNDLSNRVWSISQEPDPVQRLQAYTATEQEMQQQMSLGELCHPVPLSFEPVKSFFKGLVEAVESTLQTPLDIRLKESINCQLSDPSSTKPGTLLKTSPSPERSLLLKYARTPTLDPDTMHARLRLSADRLTVRCGLLGSLGPVPVLRFDALWQVLARDCFATGRHYWEVDVQEAGAGWWVGAAYASLRRRGASAAARLGCNRQSWCLKRYDLEYWAFHDGQRSRLRPRDDLDRLGVFLDYEAGVLAFYDVTGGMSHLHTFRATFQEPLYPALRLWEGAISIPRLP", "values": [
      {"measurement": "Percent Infected R1", "result": 70.6, "unit": "%"},
      {"measurement": "Z score R1", "result": "−0.229"}
    ]}
  ]
}
